According to PMC7870846, “Incorporation of sensing modalities into de novo designed fluorescence-activating proteins” (Nature Communications, 2021):
Changes are numbered by the printed parent chain.

Key:
[1] = tested on: human induced pluripotent stem cell (hiPSC)-derived cardiomyocytes; experiment: Contraction and SR Ca2+ transient imaging of cardiomyocytes; type: cell-based; conditions: SR-targeted; image acquisition ~16.7 Hz
Protocol: hiPSC culture and cardiomyocyte differentiation: Undifferentiated IMR90 human induced pluripotent stem cells (hiPSCs) (WiCell) were maintained in mTeSR-1 (StemCell Technologies) on tissue culture plastic coated with Matrigel diluted 1:60 (Corning) at 37 °C and 5% CO2. Cardiomyocytes were differentiated using a monolayer-based directed differentiation protocol. hiPSCs were dissociated into a single cell suspension using Versene (Life Technologies) and plated at a high density (1.5–2.5·10^5 cells cm^−2) in mTeSR containing 10 µM Y-27632 ROCK inhibitor onto Matrigel-coated plates. Twenty-four hours after plating, media was replaced with fresh mTeSR. […]
Contraction and SR Ca^2+ transient imaging: Leica DMI8 microscope controlled by MetaMorph Imaging software was used to image contraction and Ca^2+ transients of the SR in CMs. […] For mapping contraction, three different ROI traces were hand-drawn, and displacement of cells were measured in the fluorescence channel. […] In order to quantify tissue-level Ca^2+ fluxes during cardiac contraction cycling, fluorescence fold-change over the whole field of view was calculated for each frame then temporally matched with contraction data. Fluorescence fold-change in each frame was calculated by Eq. (11) where F is the fluorescence per frame, and F0 is the fluorescence of the frame with the minimum fluorescence (Fig. 5f and Supplementary Fig. 19b). […]

[2] = Ca2+-responsive mFAP Ca2+ titrations; type: binding
Protocol: In measuring Ca^2+ affinity of mFAPs on a Synergy Neo2 hybrid multi-mode reader (Fig. 4d, e, f and Supplementary Figs. 10c, f, i, 11c, f, i, 13c, f, i, 16b), large-scale purified proteins[49] were aliquoted in technical triplicate to a final concentration of 500 nM with 5.00 μM DFHBI in eleven serial dilutions ( 10 dilution factor) of CaCl2 (Sigma Aldrich) starting from either 900 mM or 90.0 mM CaCl2 (diluted using high-salt Tev cleavage buffer) including a twelfth condition without CaCl2. Final volumes were 200 μL in flat bottom, black polystyrene, non-binding surface 96-well microplates (Corning 3650). Fluorescence endpoints were measured using excitation wavelength λex = 484 nm and emission wavelength λem = 508 nm. Background fluorescence endpoints of wells with identical chromophore and CaCl2 concentrations lacking protein (substituted for equivalent volumes of high-salt Tev cleavage buffer) were measured in technical triplicate, averaged per condition, and subtracted from protein measurement averages of the same conditions.
For Ca^2+ titrations of EF4n_mFAP2a and EF4n_mFAP2b (Supplementary Fig. 13c), a small amount of Chelex 100 sodium form (Sigma Aldrich) was added to purified protein (produced by large-scale protein purification and SEC purification[49]) and nutated at 4 °C overnight. EF4n_mFAP2a was aliquoted in technical triplicate to a final concentration of 8.00 μM with 80.0 μM DFHBI and EF4n_mFAP2b was aliquoted in technical triplicate to a final concentration of 6.25 μM with 43.4 μM DFHBI, in eleven serial dilutions ( 10 dilution factor) of CaCl2 starting from 9.00 mM or 4.00 mM CaCl2 (diluted using high-salt Tev cleavage buffer pre-treated with Chelex 100) including a twelfth condition without CaCl2. Final volumes were 25.0 μL in flat bottom, black polystyrene, non-binding surface 96-well half-area microplates (Corning 3686) or 200 μL in flat bottom, black polystyrene, non-binding surface 96-well microplates (Corning 3650). Fluorescence endpoints were measured for EF4n_mFAP2a using excitation wavelength λex = 478 nm and emission wavelength λem = 520 nm, and for EF4n_mFAP2b using excitation wavelength λex = 484 nm and emission wavelength λem = 508 nm. Background fluorescence endpoints of wells with identical chromophore and CaCl2 concentrations lacking protein (substituted for equivalent volumes of high-salt Tev cleavage buffer) were measured in technical triplicate, averaged per condition, and subtracted from protein measurement averages of the same conditions. For non-linear least squares fitting to obtain Kd values, means were fit to a single-binding site isotherm function where Ca^2+-binding sites were modeled independently with a Hill coefficient of 1.

[3] = Fluorescence intensity of circularly permuted mFAP2a variants; type: biochemical; conditions: equimolar concentration
Protocol: To measure the fluorescence intensities of circularly permuted mFAP2a variants (Supplementary Fig. 22b, d), fluorescence endpoints were measured on a Synergy Neo2 hybrid multi-mode reader (BioTek) in flat bottom, black polystyrene, non-binding surface 96-well microplates (Corning 3650) or half-area microplates (Corning 3686). Fluorescence endpoints were measured in technical triplicate by exciting at λex = 488 nm and measuring fluorescence emission at λem = 510 nm (Supplementary Fig. 22b), or exciting at λex = 468 nm and measuring fluorescence emission at λem = 530 nm (Supplementary Fig. 22d). […]

Circular dichroism = type: physicochemical; conditions: absence of DFHBI
Protocol: Circular dichroism (CD) measurements were recorded at 25 °C in a 1 mm cuvette on an AVIV model 420 CD spectrometer (Biomedical, Inc.). mFAP2 and mFAP2.1 were purified by large-scale protein purification and SEC purification[49] in phosphate-buffered saline (PBS) (25.0 mM phosphate, 150 mM NaCl, pH 7.40), and far-ultraviolet CD wavelength scans recorded from 195 nm to 260 nm. mFAP2 was measured at 0.441 mg mL^−1 and mFAP2.1 at 0.500 mg mL^−1 in Na2HPO4-citrate buffer with pH adjusted to 7.75, 3.96, or 2.93 using NaOH and HCl. The reported data was background-subtracted using buffer only contols (Supplementary Fig. 1b, c).

[4] = pH-sensitivity of β-barrel variants (fluorescence ratio fold-change pH 3.66-7.36); type: biochemical
Protocol: In measuring pH-sensitivity of β-barrel variants (Supplementary Fig. 1f) in technical triplicate, 140 μL of Na2HPO4-citrate (pH 7.36 or 3.66) supplemented with 150 mM NaCl and 1.43 μM DFHBI was combined with 10.0 μL of small-scale purified protein[49] for a final concentration of 1.33 μM DFHBI. Fluorescence endpoints were measured by exciting at λex = 387 nm or λex = 483 nm and measuring fluorescence emission at λem = 501 nm or λem = 504 nm, respectively. Without background subtraction, the fluorescence ratio fold-change from pH 3.66–7.36 was calculated as:2 FluorescenceRatioFold-ChangepH3.66-7.36=FpH3.66λex=387nm,λem=501nm/FpH3.66λex=483nm,λem=504nm/FpH7.36λex=387nm,λem=501nm/FpH7.36λex=483nm,λem=504nm, where FpHλex,λem is the mean of three technical replicates of endpoint fluorescence measurements at the subscripted pH value and superscripted fluorescence excitation (λex) and fluorescence emission (λem) wavelengths.

B1: EF1n_mFAP2b: negatively allosteric Ca2+-responsive mFAP, one EF-hand motif (protein)
chain: SRAAQLLPGTWQVTMTNEDGQTSQGQWHFQPRSPYTMDIVAQGTISDGRPIVGYGKATVKTPDTLDIDITYPSLGNIKAQGQITMDSPTQFKWDAHVDKDGDGYISAAEAAAQTKILTGTLQRQE
Q: Which “response time to Ca2+ fluxes” value [1] does the source give for B1 here?
A: Its value is “less than 60 ms”.

Q: What about the “Ca2+-responsiveness / allostery between DFHBI and Ca2+ binding” value ([2]; Ca2+ titration with excess DFHBI) of the same molecule?
A: The value was “negative allostery”.

Q: What about the Kd ([2]; excess DFHBI compared to protein, Hill coefficient of 1) of the same molecule?
A: Its Kd is 260 µM.

B2: cp35-34_mFAP2a_12: brightest cpmFAP tested, de novo designed α-helical linker (protein)
chain: QEMDIVAQGTISDGRPIVGYGKATVKTPDTLDIDITYPSLGNIKAQGQITMDSPTQFKWDATTKGENDFHGRLTGTLQRTEEAKEATEEARRRGITTQAAQLLPGTWQATFTNEDGQTSQGQWHFQPRDG
Q: For B2, which “fluorescence intensity relative to mFAP2a” value [3] is on record?
A: The value was ~ 93%.

B3: mFAP2.1: mFAP2 mutational variant (protein)
chain: SRAAQLLPGTWQVTMTNEDGQTSQGQMHFQPRSPYTMDVVAQGTISDGRTIVGYGKVTVKTPDTLDVDITYPSLGNIKAQGQITMDSPTQFKFDATTKGAGNFTGRLTGTLQRQE
Q: For B3, which “stability by circular dichroism compared to mFAP2” value (Circular dichroism) is on record?
A: Its value is “improved stability at pH 2.93”.

B4: mFAP2.2: most pH-responsive mutant of SDM library (protein)
chain: B3 chain with T50P
Q: Which “fluorescence ratio fold-change from pH 3.66–7.36, higher than mFAP2.1” value [4] does the source give for B4 here?
A: The value was ~ 1.3 fold.
